From article PMC7518877, “The prefusion structure of herpes simplex virus glycoprotein B” (Science Advances, 2020)

Molecular target: the molecule itself
Assay: cryo-EM structure; electron cryo tomography and sub-volume averaging of gB H516P on purified extracellular vesicles; vesicles in 20 mM Hepes (pH 8), 150 mM NaCl; 46,067 sub-volumes, C3 symmetrised; ectodomain 9.0 Å; domains of the postfusion crystal structure fitted as rigid bodies and by MD-based flexible fitting

B1: HSV-1 glycoprotein B H516P, full-length, membrane-anchored, on extracellular vesicles (natural protein)
chain: not shown
notes: glycoprotein B (gB) of herpes simplex virus 1, full length with membrane anchor and cytoplasmic domain, gene in plasmid pEP98; Trimer embedded in the vesicle membrane; prefusion (compact) conformation; also called gB H516P; H516P gB variant; source: BHK-21 cells, transiently transfected; on extracellular vesicles harvested from the supernatant by differential centrifugation
In the case of B1, the “stoichiometry N” value is reported as 3.
